From patent US20250215089A1

Assays:
human PD-L1 (human) [1] = target: human PD-L1 (human) (UniProt Q9NZQ7); assay: cell-based or functional assay
human PD-L1 (human) [2] = target: human PD-L1 (human) (UniProt Q9NZQ7); assay: FACS, CHO-K1/hPD-L1 cells
[3] = target: cynomolgus monkey PD-L1 (cynomolgus monkey); assay: FACS, CHO-K1/cyPD-L1 cells
human PD-L1 (human) [4] = target: human PD-L1 (human) (UniProt Q9NZQ7); assay: FACS, NCI-H226 cells
human CD40 (human) [5] = target: human CD40 (human) (UniProt P25942); assay: FACS, CHO-K1/hCD40 cells
[6] = target: cynomolgus monkey CD40 (cynomolgus monkey); assay: FACS, CHO-K1/cyCD40 cells
human CD40 (human) [7] = target: human CD40 (human) (UniProt P25942); assay: FACS, Raji cells

Sequence of human PD-L1 (human) (Q9NZQ7 19-290): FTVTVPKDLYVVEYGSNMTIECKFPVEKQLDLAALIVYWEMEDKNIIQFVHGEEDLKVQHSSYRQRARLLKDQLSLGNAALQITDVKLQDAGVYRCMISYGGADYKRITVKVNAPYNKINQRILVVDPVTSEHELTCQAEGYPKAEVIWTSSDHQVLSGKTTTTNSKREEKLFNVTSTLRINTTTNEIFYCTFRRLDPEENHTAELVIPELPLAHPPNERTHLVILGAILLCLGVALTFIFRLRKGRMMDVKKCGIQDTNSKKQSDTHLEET
Sequence of human CD40 (human) (P25942 21-277): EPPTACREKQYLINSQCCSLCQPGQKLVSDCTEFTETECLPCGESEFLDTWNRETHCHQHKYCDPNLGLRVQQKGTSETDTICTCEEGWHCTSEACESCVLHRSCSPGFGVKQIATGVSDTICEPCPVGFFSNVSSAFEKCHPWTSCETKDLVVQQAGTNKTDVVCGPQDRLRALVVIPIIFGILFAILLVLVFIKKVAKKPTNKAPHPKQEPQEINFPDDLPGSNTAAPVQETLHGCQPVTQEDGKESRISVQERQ

Substance	Maximum RLU, Jurkat-NFAT-hPD1 reporter (human PD-L1 (human) [1]) [RLU]	Maximum MFI (human PD-L1 (human) [2]) [MFI]	Maximum MFI [3] [MFI]	Maximum MFI (human PD-L1 (human) [4]) [MFI]	Maximum MFI (human CD40 (human) [5]) [MFI]	Maximum MFI [6] [MFI]	Maximum MFI (human CD40 (human) [7]) [MFI]
hIgG1 (antibody)	2370	86					
Isotype (antibody)	403	170	50	55	23	59	78
